From patent US20150197571A1

Legend:
[1] = target: human PD-L1 expressed on 300.19 cells (human) (UniProt Q9NZQ7); experiment: FACS blockade, B7-1-hIgG on 300-hPD-L1 cells, mAb 0.313 ug/ml
[2] = target: human PD-L1 expressed on 300.19 cells (human) (UniProt Q9NZQ7); experiment: FACS on 300.19 cells expressing human PD-L1
[3] = target: T1, human PD-L2 expressed on 300.19 cells (human) (UniProt Q9BQ51); experiment: FACS on hPD-L2 300 cells, antibody 10 ug/ml
T1 sequence: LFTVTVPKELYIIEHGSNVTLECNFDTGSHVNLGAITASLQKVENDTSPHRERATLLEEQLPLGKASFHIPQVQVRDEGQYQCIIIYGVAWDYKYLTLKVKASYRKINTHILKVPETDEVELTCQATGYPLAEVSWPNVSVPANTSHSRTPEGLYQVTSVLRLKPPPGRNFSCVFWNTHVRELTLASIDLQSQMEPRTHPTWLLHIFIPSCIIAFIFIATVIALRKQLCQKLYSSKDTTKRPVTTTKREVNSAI

[4] = target: human PD-L1 expressed on 300.19 cells (human) (UniProt Q9NZQ7); experiment: FACS competition, PD-1-Ig on hPD-L1 300 cells, mAb 0.37 ug/ml
[5] = target: T1, human PD-L2 expressed on 300.19 cells (human); experiment: FACS competition, PD-1-Ig on hPD-L2 300 cells, mAb 0.12 ug/ml
[6] = target: T1, human PD-L2 expressed on 300.19 cells (human); experiment: FACS on hPD-L2 300 cells, antibody 0.1 ug/ml
[7] = target: T1, human PD-L2 expressed on 300.19 cells (human); experiment: FACS competition, PD-1-Ig on hPD-L2 300 cells, mAb 0.37 ug/ml
[8] = target: human PD-L1 expressed on 300.19 cells (human) (UniProt Q9NZQ7); experiment: FACS competition, PD-1-Ig on hPD-L1 300 cells, mAb 90 ug/ml
[9] = target: human PD-L1 expressed on 300.19 cells (human) (UniProt Q9NZQ7); experiment: FACS competition, PD-1-Ig on hPD-L1 300 cells, mAb 1.1 ug/ml
[10] = target: human PD-L1 expressed on 300.19 cells (human) (UniProt Q9NZQ7); experiment: FACS on hPD-L1 300 cells, antibody 10 ug/ml
[11] = target: T1, human PD-L2 expressed on 300.19 cells (human); experiment: FACS blockade, PD-1-hIgG1 on PD-L2 300.19 cells
[12] = target: T1, human PD-L2 expressed on 300.19 cells (human); experiment: FACS competition, PD-1-Ig on hPD-L2 300 cells, mAb 0.04 ug/ml
[13] = target: human PD-L1 expressed on 300.19 cells (human) (UniProt Q9NZQ7); experiment: FACS blockade, B7-1-hIgG on 300-hPD-L1 cells, mAb 0.0195 ug/ml
[14] = target: T1, human PD-L2 expressed on 300.19 cells (human); experiment: FACS competition, PD-1-Ig on hPD-L2 300 cells, mAb 10 ug/ml
[15] = target: human PD-L1 expressed on 300.19 cells (human) (UniProt Q9NZQ7); experiment: FACS blockade, B7-1-hIgG on 300-hPD-L1 cells, mAb 10 ug/ml
[16] = target: human PD-L1 expressed on 300.19 cells (human) (UniProt Q9NZQ7); experiment: FACS competition, PD-1-Ig on hPD-L1 300 cells, mAb 10 ug/ml
[17] = target: human PD-L1 expressed on 300.19 cells (human) (UniProt Q9NZQ7); experiment: FACS competition, PD-1-Ig on hPD-L1 300 cells, mAb 0.04 ug/ml
[18] = target: T1, human PD-L2 expressed on 300.19 cells (human); experiment: FACS competition, PD-1-Ig on hPD-L2 300 cells, mAb 1.1 ug/ml
[19] = target: human PD-L1 expressed on 300.19 cells (human) (UniProt Q9NZQ7); experiment: FACS blockade, B7-1-hIgG on 300-hPD-L1 cells, mAb 2.5 ug/ml
[20] = target: human PD-L1 expressed on 300.19 cells (human) (UniProt Q9NZQ7); experiment: FACS blockade, B7-1-hIgG on 300-hPD-L1 cells, mAb 1.25 ug/ml
[21] = target: human PD-L1 expressed on 300.19 cells (human) (UniProt Q9NZQ7); experiment: FACS blockade, B7-1-hIgG on 300-hPD-L1 cells, mAb 0.156 ug/ml
[22] = target: human PD-L1 expressed on 300.19 cells (human) (UniProt Q9NZQ7); experiment: FACS blockade, PD-1-hIgG1 on PD-L1 300.19 cells
[23] = target: human PD-L1 expressed on 300.19 cells (human) (UniProt Q9NZQ7); experiment: FACS competition, PD-1-Ig on hPD-L1 300 cells, mAb 3.3 ug/ml
[24] = target: human PD-L1 expressed on 300.19 cells (human) (UniProt Q9NZQ7); experiment: FACS blockade, B7-1-hIgG on 300-hPD-L1 cells, mAb 5 ug/ml
[25] = target: T1, human PD-L2 expressed on 300.19 cells (human); experiment: FACS competition, PD-1-Ig on hPD-L2 300 cells, mAb 3.3 ug/ml
[26] = target: T1, human PD-L2 expressed on 300.19 cells (human); experiment: FACS competition, PD-1-Ig on hPD-L2 300 cells, mAb 90 ug/ml
[27] = target: human PD-L1 expressed on 300.19 cells (human) (UniProt Q9NZQ7); experiment: FACS blockade, B7-1-hIgG on 300-hPD-L1 cells, mAb 0.0098 ug/ml
[28] = target: human PD-L1 expressed on 300.19 cells (human) (UniProt Q9NZQ7); experiment: FACS blockade, B7-1-hIgG on 300-hPD-L1 cells, mAb '0.0.39' [sic] ug/ml
[29] = target: human PD-L1 expressed on 300.19 cells (human) (UniProt Q9NZQ7); experiment: FACS blockade, B7-1-hIgG on 300-hPD-L1 cells, mAb 20 ug/ml
[30] = target: human PD-L1 expressed on 300.19 cells (human) (UniProt Q9NZQ7); experiment: FACS blockade, B7-1-hIgG on 300-hPD-L1 cells, mAb 0.625 ug/ml
[31] = target: human PD-L1 expressed on 300.19 cells (human) (UniProt Q9NZQ7); experiment: FACS blockade, B7-1-hIgG on 300-hPD-L1 cells, mAb 0.078 ug/ml
[32] = target: T1, human PD-L2 expressed on 300.19 cells (human); experiment: FACS competition, PD-1-Ig on hPD-L2 300 cells, mAb 30 ug/ml
[33] = target: human PD-L1 expressed on 300.19 cells (human) (UniProt Q9NZQ7); experiment: FACS on hPD-L1 300 cells, antibody 1 ug/ml
[34] = target: T1, human PD-L2 expressed on 300.19 cells (human); experiment: FACS on hPD-L2 300 cells, antibody 1 ug/ml
[35] = target: human PD-L1 expressed on 300.19 cells (human) (UniProt Q9NZQ7); experiment: FACS on hPD-L1 300 cells, antibody 0.1 ug/ml
[36] = target: T1, human PD-L2 expressed on 300.19 cells (human); experiment: FACS on 300.19 cells expressing human PD-L2

Chain of UniProt Q9NZQ7 (Q9NZQ7 19-290): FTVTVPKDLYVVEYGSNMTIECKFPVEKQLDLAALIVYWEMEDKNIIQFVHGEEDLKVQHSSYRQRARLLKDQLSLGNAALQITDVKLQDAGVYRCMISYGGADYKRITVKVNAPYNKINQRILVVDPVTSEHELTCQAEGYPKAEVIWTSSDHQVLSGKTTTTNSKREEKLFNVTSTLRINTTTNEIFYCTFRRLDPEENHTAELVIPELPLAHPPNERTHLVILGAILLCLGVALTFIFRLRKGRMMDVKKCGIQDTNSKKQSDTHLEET

With MOPC31C isotype control antibody the Mean of PE Signal (bound B7-1-Ig) [1] was 3960, the MFI [2] was 45 and the Mean of PE signal [3] was 173. For the same substance, the Mean of PE Signal (bound PD-1-Ig) [4] was 13500, the Mean of PE Signal (bound PD-1-Ig) [5] was 59100 and the Mean of PE signal [6] was 149. It also gave a Mean of PE Signal (bound PD-1-Ig) [7] of 60600, a Mean of PE Signal (bound PD-1-Ig) [8] of 11800 and a Mean of PE Signal (bound PD-1-Ig) [9] of 13600. The Mean of PE signal [10] was 263, the MFI of bound PD-1-Ig (inversely proportional to blockage) [11] was 19200 and the Mean of PE Signal (bound PD-1-Ig) [12] was 60800. For the same substance, the Mean of PE Signal (bound B7-1-Ig) [13] was 4760, the Mean of PE Signal (bound PD-1-Ig) [14] was 52500 and the Mean of PE Signal (bound B7-1-Ig) [15] was 3550. The Mean of PE Signal (bound PD-1-Ig) [16] was 12600, the Mean of PE Signal (bound PD-1-Ig) [17] was 13300 and the Mean of PE Signal (bound PD-1-Ig) [18] was 58400. For the same substance, the Mean of PE Signal (bound B7-1-Ig) [19] was 3880, the Mean of PE Signal (bound B7-1-Ig) [20] was 3490 and the Mean of PE Signal (bound B7-1-Ig) [21] was 3720. It also gave an MFI of bound PD-1-Ig (inversely proportional to blockage) [22] of 26700, a Mean of PE Signal (bound PD-1-Ig) [23] of 11900 and a Mean of PE Signal (bound B7-1-Ig) [24] of 3580. The Mean of PE Signal (bound PD-1-Ig) [25] was 52600, the Mean of PE Signal (bound PD-1-Ig) [26] was 53500 and the Mean of PE Signal (bound B7-1-Ig) [27] was 4410. It also gave a Mean of PE Signal (bound B7-1-Ig) [28] of 3990, a Mean of PE Signal (bound B7-1-Ig) [29] of 3590 and a Mean of PE Signal (bound B7-1-Ig) [30] of 3710. It also gave a Mean of PE Signal (bound B7-1-Ig) [31] of 4320, a Mean of PE Signal (bound PD-1-Ig) [32] of 54200 and a Mean of PE signal [33] of 183. It also gave a Mean of PE signal [34] of 164, a Mean of PE signal [35] of 250 and an MFI [36] of 19.
Substance C1.18 mIgG2a control (antibody) has a Mean of PE Signal (bound B7-1-Ig) [13] of 3500, a Mean of PE Signal (bound B7-1-Ig) [28] of 4280 and a Mean of PE Signal (bound B7-1-Ig) [29] of 4540. It also gave a Mean of PE Signal (bound B7-1-Ig) [31] of 397.
